The text below walks through data of paper PMC4505822.

In the assay the target is insertion mutant recombinant human prion protein with five additional octapeptide repeats (human) (UniProt P04156). The experiment in a line: AFM height measurement with a calibration curve of marker proteins.

For orientation: stoichiometry N means a count of units in the complex or per binding partner.

Turning to “insertion mutant recombinant human prion protein with five additional octapeptide repeats (from UniProt P04156 23-231) (natural protein)”, the stoichiometry N lay within 11 to 22 monomers.
